According to patent US7220822:

Legend:
[1] = biological target: CD80-Ig (extracellular domain of CD80 fused with the constant region of mouse IgG1 heavy chain) (mouse); assay: SPR (BIACORE), peptide over amine-coupled CD80-Ig, 37 C
[2] = biological target: CD80-Ig (extracellular domain of CD80 fused with the constant region of mouse IgG1 heavy chain) (mouse); assay: SPR competitive kinetics, peptide 0.5 × 10^5 nM with 3.2 µM CD28-Ig (competitor) over captured CD80-Ig
[3] = biological target: CD80-Ig (extracellular domain of CD80 fused with the constant region of mouse IgG1 heavy chain) (mouse); assay: SPR (BIACORE), EL CD28 peptide injected over amine-coupled CD80-Ig (1488 RU); slope of ln dR/dt vs t plotted against the peptide concentration, ka is the slope of this plot
[4] = biological target: CD80-Ig (extracellular domain of CD80 fused with the constant region of mouse IgG1 heavy chain) (mouse); assay: SPR direct kinetics, peptide 6.00E+03 nM over immobilized CD80-Ig
[5] = biological target: CD80-Ig (extracellular domain of CD80 fused with the constant region of mouse IgG1 heavy chain) (mouse); assay: SPR competitive kinetics, peptide 2 × 10^5 nM with 3.2 µM CD28-Ig (competitor) over captured CD80-Ig
[6] = biological target: CD80-Ig (extracellular domain of CD80 fused with the constant region of mouse IgG1 heavy chain) (mouse); assay: SPR competitive kinetics, peptide 1 × 10^5 nM with 3.2 µM CD28-Ig (competitor) over captured CD80-Ig
[7] = biological target: CD80-Ig (extracellular domain of CD80 fused with the constant region of mouse IgG1 heavy chain) (mouse); assay: SPR (BIACORE), direct binding to immobilized CD80-Ig, linear regression plot
[8] = biological target: CD80-Ig (extracellular domain of CD80 fused with the constant region of mouse IgG1 heavy chain) (mouse); assay: SPR direct kinetics, peptide 3.00E+03 nM over immobilized CD80-Ig
[9] = biological target: CD80-Ig (extracellular domain of CD80 fused with the constant region of mouse IgG1 heavy chain) (mouse); assay: SPR competitive kinetics, average over peptide concentrations; competitor CD28-Ig
[10] = biological target: CD80-Ig (extracellular domain of CD80 fused with the constant region of mouse IgG1 heavy chain) (mouse); assay: SPR direct kinetics, peptide 1.50E+03 nM over immobilized CD80-Ig
[11] = biological target: CD80-Ig (extracellular domain of CD80 fused with the constant region of mouse IgG1 heavy chain) (mouse); assay: SPR direct kinetics, peptide 3.75E+02 nM over immobilized CD80-Ig
[12] = biological target: CD80-Ig (extracellular domain of CD80 fused with the constant region of mouse IgG1 heavy chain) (mouse); assay: SPR competitive kinetics, peptide 0.125 × 10^5 nM with 3.2 µM CD28-Ig (competitor) over captured CD80-Ig
[13] = biological target: CD80-Ig (extracellular domain of CD80 fused with the constant region of mouse IgG1 heavy chain) (mouse); assay: SPR competitive kinetics, peptide 3 × 10^5 nM with 3.2 µM CD28-Ig (competitor) over captured CD80-Ig
[14] = biological target: CD80-Ig (extracellular domain of CD80 fused with the constant region of mouse IgG1 heavy chain) (mouse); assay: SPR competitive kinetics, peptide 0.25 × 10^5 nM with 3.2 µM CD28-Ig (competitor) over captured CD80-Ig
[15] = biological target: CD80-Ig (extracellular domain of CD80 fused with the constant region of mouse IgG1 heavy chain) (mouse); assay: SPR direct kinetics, peptide 7.50E+02 nM over immobilized CD80-Ig

B1: EL-CD28 (end-blocked L CD28 peptide mimetic) (peptide)
peptide: Ac-KIEFMYPPPYLDNERSNGTI-NH2
maximum response units [1]: 668 RU | Kd [2]: 5 µM | koff [2]: 0.316 s⁻¹ | kon [2]: 63200 M⁻¹ s⁻¹ | kon [3]: 113000 M⁻¹ s⁻¹ | koff [4]: 0.273 s⁻¹ | kon [4]: 111000 M⁻¹ s⁻¹ | Kd [5]: 1.56 µM | koff [5]: 0.0862 s⁻¹ | kon [5]: 55100 M⁻¹ s⁻¹ | Kd [6]: 2.54 µM | koff [6]: 0.0803 s⁻¹ | kon [6]: 31600 M⁻¹ s⁻¹ | Kd [7]: 2.34 µM | koff [8]: 0.214 s⁻¹ | kon [8]: 137000 M⁻¹ s⁻¹ | Kd [9]: 2.79 µM | koff [10]: 0.242 s⁻¹ | kon [10]: 115000 M⁻¹ s⁻¹ | koff [11]: 0.399 s⁻¹ | kon [11]: 246000 M⁻¹ s⁻¹ | Kd [12]: 1.38 µM | koff [12]: 0.101 s⁻¹ | kon [12]: 73400 M⁻¹ s⁻¹ | Kd [13]: 2.92 µM | koff [13]: 6.89 s⁻¹ | kon [13]: 2.36e+06 M⁻¹ s⁻¹ | Kd [14]: 3.36 µM | koff [14]: 0.0195 s⁻¹ | kon [14]: 3360 M⁻¹ s⁻¹ | koff [15]: 0.274 s⁻¹ | kon [15]: 110000 M⁻¹ s⁻¹
